Results published in patent US20240228647A1, “OFATUMUMAB FOR TREATING MULTIPLE SCLEROSIS IN ASIAN PATIENTS” (Novartis AG, priority 2021, published 2024).
Where two headings read alike, the source gives them in different places. Marks after values point to notes of the source that are not given here.

Key:
[1] = test system: patients with RMS; format: in vivo, human
Description: (§1) Ofatumumab was investigated in 1882 patients with RMS from two identical Phase III randomized, double-blind, double-dummy, active-comparator controlled, parallel-group, multicenter studies of identical design (Study I and Study II). Patients were randomized to receive either ofatumumab, OMB (20 mg s.c injections every 4 weeks, after an initial loading regimen of 3 injections on Day 1, 7, and 14), or teriflunomide, TER (14 mg p.o. once a day) as active comparator. For brevity, the teriflunomide data are not shown hereinafter.
(§2) The maximum treatment duration for an individual patient was 30 study months (approximately 2.5 years). The two studies included a total of 71 patients of Asian race (36 patients in ofatumumab and 35 patients in teriflunomide treatment groups). This Example also includes the Asian patients data from oncology studies (Study A and Study B), as supportive data, where required.
For the safety analyses of this report, non-serious treatment emergent adverse events (TEAEs) up to and including safety cut-off (i.e. 100 days after last study drug administration) and serious TEAEs regardless of the safety cutoff were considered (if reported prior to the data cut-off of Studies I and II). Common terminology criteria for adverse events (CTCAE) grading was used to record the severity of each AE. The latest version of CTCAE available at the time of TEAE reporting was used. […] The three most frequently reported AEs by SOC were ‘General disorders and administration site conditions’ ‘Infections and infestations’ and ‘Injury, poisoning and procedural complications’ in the Asian and ROW subgroups by race (Table 7). […] In the Asian subgroup, 1 patient experienced SAEs of urinary tract infections, urosepsis and testicular infarction in the ofatumumab group and 1 patient reported an SAE of nephrolithiasis in the teriflunomide group (Table 8). Due to the small number of Asian patients by race and region, results should be interpreted with caution.
AEs of special interest were summarized by risk name, PT and treatment. Furthermore, the incidence of any AE that fulfilled the search terms as defined in eCRS were summarized by risk name, level, and maximum CTCAE grade. In this section, AESIs are first described for subgroups by race and then by region. […] The definitions of AEs of special interest correspond to the identified or potential risks for ofatumumab and its class of drug as well as those for the comparator (teriflunomide). AESIs, based on the safety profiles of ofatumumab, comparator, and other anti-CD20 mABs are: • Injection-related reactions including injection-systemic reaction and injection-site • reactions • Infections, including opportunistic infections, HBV infection reactivation and PML • Malignant and premalignant disorders • Hepatic Safety • Neutropenia

[2] = human, in vivo
[3] = test system: patients with RMS; assay: Annualized rate of new or enlarging T2 lesions, Phase III Studies I and II; format: in vivo, human; conditions: for New or enlarging T2 lesions rate reduction (%): vs teriflunomide
Description: as §1, §2
The annualized rate of new or enlarging T2 lesions was a key secondary efficacy endpoint in the pivotal Phase III studies.

[4] = test system: patients with Relapsing Multiple Sclerosis; conditions: for COVID-19 outcome / COVID-19 symptoms duration: serious case
[5] = patient 5409018, OMB interrupted
[6] = patient 5608014, OMB interrupted
[7] = patient 5800004, drug withdrawn
[8] = patient 5801015, OMB interrupted

ofatumumab [OMB]
TEAE: Gastrointestinal disorders, % ([1]; Asian (race)): (11.1) %
TEAE: Nervous system disorders, % ([1]; Asian (race)): (11.1) %
TEAE: Reproductive system and breast disorders, % ([1]; Asian (race)): (11.1) %
AESI: Injection-site reaction (any reaction), % ([1]; Rest of World (race)): (11.1) %
AE by PT: alopecia, % ([1]; in vivo): 5.7%
AE by PT: alopecia, patients ([1]; in vivo): 52
AE by PT: nasopharyngitis, % ([1]; in vivo): 18.5%
AE by PT: nasopharyngitis, patients ([1]; in vivo): 168
AE by PT: pyrexia, % ([1]; in vivo): 33.3%
AE by PT: pyrexia, patients ([1]; in vivo): 12
AE by PT: upper respiratory tract infection, % ([1]; in vivo): 11.1%
AE by PT: upper respiratory tract infection, patients ([1]; in vivo): 4
AESI Neutropenia, % ([1]; in vivo): (1.0) %
AESI: Drug abuse and dependence, % ([1]; in vivo): 0.1%
AESI: Drug abuse and dependence, number of events [E] ([1]; in vivo): 1
AESI: Herpes viral infections, % ([1]; in vivo): 5.1%
AESI: Herpes viral infections, number of events [E] ([1]; in vivo): 61
AESI: Injection-site reaction (any reaction), % ([1]; in vivo): (2.8) %
AESI: Lower Respiratory tract Infections, % ([1]; in vivo): 3.3%
AESI: Lower Respiratory tract Infections, number of events [E] ([1]; in vivo): 31
AESI: Neoplasms, % ([1]; in vivo): 2.6%
AESI: Neoplasms, number of events [E] ([1]; in vivo): 28
AESI: Neutropenia, % ([1]; in vivo): 1.0%
AESI: Neutropenia, number of events [E] ([1]; in vivo): 13
AESI: Opportunistic infections, % ([1]; in vivo): 0.1%
AESI: Opportunistic infections, number of events [E] ([1]; in vivo): 1
AESI: Pregnancy, % ([1]; in vivo): 0.1%
AESI: Pregnancy, number of events [E] ([1]; in vivo): 1
AESI: Premalignant disorders, % ([1]; in vivo): 0.8%
AESI: Premalignant disorders, number of events [E] ([1]; in vivo): 9
AESI: Risk of malignancy, % ([1]; in vivo): 0.5%
AESI: Risk of malignancy, number of events [E] ([1]; in vivo): 5
AESI: Suicidal Ideation and Behavior, % ([1]; in vivo): 0.9%
AESI: Suicidal Ideation and Behavior, number of events [E] ([1]; in vivo): 9
AESI: Urinary tract infection, number of events [E] ([1]; in vivo): 4
AESI: Varicella-Zoster virus infections, % ([1]; in vivo): 2.0%
AESI: Varicella-Zoster virus infections, number of events [E] ([1]; in vivo): 19
Drug abuse and dependence, % ([1]; in vivo): (0.1) %
Pregnancy, % ([1]; in vivo): (0.1) %
SAE by PT: Appendicitis, % ([1]; in vivo): 0.9%
SAE by PT: Appendicitis, patients ([1]; in vivo): 8
Serious TEAE: Blood and lymphatic system disorders, % ([1]; in vivo): (0.2) %
Serious TEAE: Cardiac disorders, % ([1]; in vivo): (0.3) %
Serious TEAE: Ear and labyrinth disorders, % ([1]; in vivo): (0.3) %
Serious TEAE: Gastrointestinal disorders, % ([1]; in vivo): (0.9) %
Serious TEAE: General disorders and administration site conditions, % ([1]; in vivo): (0.3) %
Serious TEAE: Hepatobiliary disorders, % ([1]; in vivo): (0.5) %
Serious TEAE: Immune system disorders, % ([1]; in vivo): (0.1) %
Serious TEAE: Injury, poisoning and procedural complications, % ([1]; in vivo): (1.4%
Serious TEAE: Investigations, % ([1]; in vivo): (0.2) %
Serious TEAE: Musculoskeletal and connective tissue disorders, % ([1]; in vivo): (0.9) %
Serious TEAE: Neoplasms benign, malignant and unspecified (incl cysts and polyps), % ([1]; in vivo): (1.0) %
Serious TEAE: Nervous system disorders, % ([1]; in vivo): (0.8) %
Serious TEAE: Psychiatric disorders, % ([1]; in vivo): (1.1) %
Serious TEAE: Respiratory, thoracic and mediastinal disorders, % ([1]; in vivo): (0.2) %
Serious TEAE: Skin and subcutaneous tissue disorders, % ([1]; in vivo): (0.1) %
TEAE: Cardiac disorders, % ([1]; in vivo): (2.9) %
TEAE: Congenital, familial and genetic disorders, % ([1]; in vivo): (0.1) %
TEAE: Endocrine disorders, % ([1]; in vivo): (1.0) %
TEAE: Gastrointestinal disorders, % ([1]; in vivo): (24.2) %
TEAE: Hepatobiliary disorders, % ([1]; in vivo): (1.9) %
TEAE: Immune system disorders, % ([1]; in vivo): (1.8) %
TEAE: Neoplasms benign, malignant and unspecified (incl cysts and polyps), % ([1]; in vivo): (2.6) %
TEAE: Nervous system disorders, % ([1]; in vivo): (29.5) %
TEAE: Reproductive system and breast disorders, % ([1]; in vivo): (5.9) %
TEAE: Social circumstances, % ([1]; in vivo): (0.3) %
TEAE: Vascular disorders, % ([1]; in vivo): (6.0) %
Ofatumumab concentrations in Asian subjects and White subjects [2]: Comparable ofatumumab concentrations
Race as a covariate in the population PK analysis [2]: not found to be a significant covariate
Half-life at steady state ([2]; sc, 20 mg): approximately 16 days
New or enlarging lesions/patient years (lesion years) ([3]; Asian): (1.00)
Number of new or enlarging lesions ([3]; Asian): 44/44
New or enlarging lesions/patient years (lesion years) ([3]; Rest of World): (0.84
Number of new or enlarging lesions ([3]; Rest of World): 1185/1404
Reduction of rate of new or enlarging T2 lesions compared with teriflunomide ([3]; overall population): 82.9%
New or enlarging T2 lesions rate reduction (%) ([3]; Asian): 59.0/0.041* %
New or enlarging T2 lesions rate reduction (%) ([3]; Rest of World): 83.3/<0.001* %
COVID-19 outcome Ongoing, cases ([4]; non-serious cases (n = 29)): 0
COVID-19 outcome Recovered, cases ([4]; non-serious cases (n = 29)): 29
COVID-19 outcome Recovering, cases ([4]; non-serious cases (n = 29)): 0
Complete recovery from COVID-19, cases ([4]; of 35 confirmed cases): 34
COVID-19 outcome [4, 5]: Complete
COVID-19 symptoms duration [4, 5]: ~50 days
COVID-19 outcome [4, 6]: Complete
COVID-19 symptoms duration [4, 6]: 18 days
COVID-19 outcome [4, 7]: Fatal
COVID-19 symptoms duration [4, 7]: ~30 days
COVID-19 outcome ([4]; patient 5800043, OMB continued): Complete
COVID-19 symptoms duration ([4]; patient 5800043, OMB continued): 11 days
COVID-19 outcome [4, 8]: Complete
COVID-19 symptoms duration [4, 8]: 15 days
COVID-19 outcome ([4]; patient 5806001, OMB continued): Complete
COVID-19 symptoms duration ([4]; patient 5806001, OMB continued): 10 days
COVID-19 outcome Fatal, cases ([4]; serious cases (n = 6)): 1
COVID-19 outcome Recovered, cases ([4]; serious cases (n = 6)): 5
